# US20140363427A1 (CRUCELL HOLLAND B V, published 2014)
# B1: Fab 104E5 (Fab, V domains shown)
# VH: QVQLEQSGAEVKKPGSSVKVSCKPSGGTFDTYTISWVRQAPGQRLEWLGRIIPSLGETNYAHKLQGRVTITADKATSVVYMDLSDLTSEDAAVYYCAFRITGPVDWVWDYGMDVWGQGTTVSVSS
# VL: DIQMTQSPSSLPASVGDRVTITCRASQNIKTYLNWYQQKPGRAPKLLISAVSNLQSGVPSRFSGTGSGTDFTLTISSLQPEDFATYYCQQSFSIPLTFGGGAKVEIKR
# B2: Fab 38F10 (Fab, V domains shown)
# VH: EVQLLESGGDVVQPGKSLRLSCTASGFSITDFGIHWVRQAPGKGLEWVALISYNEVNIHYGESVRGRFTISRDIAKNTVYLQMNGLRPEDTGVYFCARDVWEDSWLSLACFQEWGQGSLVVVSS
# VL: DIQLTQSPPTLSASVGDRVSMTCRASQSISNWLAWYQQKPGKAPKLLIQKASNLEDGVPSRFTASGFGTEFTLTISSLQPDDFATYYCQQYNSYSGLSFGGGTKVDIKR
# B3: IgG form of 30D8 (antibody, V domains shown)
# VH: EVQLLQSGAELKKPGASVKISCKTSGFTFSGHTIAWVRQAPGQGLEWMGWVSTNNGNTEYAQKIQGRVTMTMDTSTSTVYMELRSLTSDDTAVYFCAREWLVMGGFAFDHWGQGTLLTVSS
# VL: QSVLTQASSVSVAPGQTARITCGANNIGSQNVHWYQQKPGQAPVLVVYDDRDRPSGIPDRFSGSNSGNTATLTISRVEAGDEADYYCQVWDSSRDQAVIFGGGTKLTVLG
# notes: also called IgG 30D8; 30D8 Mab
# B4: IgG form of 104E5 (antibody, V domains shown)
# VH: B1 VH
# VL: B1 VL
# B5: IgG form of 38F10 (antibody, V domains shown)
# VH: B2 VH
# VL: B2 VL
# B6: IgG form of 17C9 (antibody, V domains shown)
# VH: QVQLQQWGAGLVRPSETLSLTCAVYGDSFNDYFWTWIRQTPGKGLEWIGEISHSGSTNYSPSLKSRVTISVDTSKNQFSLKLSAVTAADTTVYFCARGVRSRPPPSYRGSGSPPYYHYGMDVWGQGTTVTVSS
# VL: EIVLTQSPSTLSASVGDRVTITCRASQNINTWLAWYQQKPGKAPKLLIYAASFLQSGVPSRFSGSGSGTDFTLTISNLQPEDFATYFCQQANSFPRTFGQGTKVEVKR
# B7: Motavizumab IgG (antibody, V domains shown)
# VH: QVTLRESGPALVKPTQTLTLTCTFSGFSLSTAGMSVGWIRQPPGKALEWLADIWWDDKKHYNPSLKDRLTISKDTSKNQVVLKVTNMDPADTATYYCARDMIFNFYFDVWGQGTTVTVSS
# VL: DIQMTQSPSTLSASVGDRVTITCSASSRVGYMHWYQQKPGKAPKLLIYDTSKLASGVPSRFSGSGSGTEFTLTISSLQPDDFATYYCFQGSGYPFTFGGGTKVEIK
# B8: IgG form of 14G3 (antibody, V domains shown)
# VH: QVQLQESGPGLVKPSQTLSLTCTVSGASISSDNHYWSWIRQPPGKGLEWIASIYYTGGTNYNPSLKSRLALSIDTSGDQFSLKLSSVTAADTAVYYCVRGLFFITARPYWYFDLWGRGTLVAVSS
# VL: DVVMTQTPLSLSVTPGEPASISCRSSQSLLDSDDGNTYLDWYLQKPGQSPQLLIYTLSYRASGVPDRFSGSGSGTDFTLKISRVEADDVGIYYCMQRMEFPFTFGQGTRLDIKR
# B9: IgG form of 56E11 (antibody, V domains shown)
# VH: EVQLQESGPGLVKPSETLSLTCSVSGVSINSNNYFWAWIRQPPGKGLEWIGNIYYGGSTHYNASLQSRVTISVDTSKSQFSLKLNSVTSADTAVYYCAASESIFWDYYYGLDVWGQGTTVTVSS
# VL: QAVLTQPPSASGSPGQSVTISCTGTSSDVGGYNYVSWYQQHPGKAPRLIISEVTKRPSGVPGRFSGSKSGNTASLTVSGLQAEDEADYYCSSYAGSRHVVFGGGTKLTVLG
# B10: IgG form of 69F6 (antibody, V domains shown)
# VH: QMQLVQSGAEVRKPGESLKIACKGSGYSFTSYWIAWVRQMPGKGLEWLGIIFPNDSDATYSPSFQGQVTMSVDKSISTAYLQWNSLKASDTAVYFCARQYYLGSFESWGQGTTVTVSS
# VL: EIVLTQSPSSLSASVGDRVTISCQASQDISNYLNWYQQKPGKAPRLLIYDASYLDTGVPSRFSGSGSGTDFTFTISSLQPEDFATYYCQQYDDLRGGFTFGPGTKVDVKR
# B11: Fab 56E11 (Fab, V domains shown)
# VH: B9 VH
# VL: B9 VL
# notes: also called 56E11 Fab
# B12: Fab 17C9 (Fab, V domains shown)
# VH: B6 VH
# VL: B6 VL
# notes: also called 17C9 Fab
# B13: Fab 69F6 (Fab, V domains shown)
# VH: B10 VH
# VL: B10 VL
# notes: also called 69F6 Fab
# B14: Fab 90D3 (Fab, V domains shown)
# VH: QVQLVESGGGLVKPGGSLRLSCVGSGFTLKNYEMNWVRQAPGQGLQYISYISSSGNVVKYVDSVQGRFTISRDNAGNSLYLQMNNLRAEDTATYYCVRGFSIDKYDSSVDEYWGQGIAVTVSS
# VL: AIRLTQSPSSLSASVGDRVSITCRASQSISNFLNWYQQKPGRAPKLLISAASSLQGGVPSRFSGSGSGTDFTLTISSLQPEDFATYYCQQTYISLYTFGQGTKLEIKR
# B15: Fab 30D8 (Fab, V domains shown)
# VH: B3 VH
# VL: B3 VL
# Target: T1, native RSV F protein from the RSV A2 strain (Respiratory Syncytial Virus strain A2, UniProt P03420 26-574)
# T1 construct: also called HEp2 lysate (native); purified RSV F protein (native)
# Experiment: ELISA, purified Fab, estimated EC50
row,Binder,EC50
1,B1,0.08 nM
2,B2,0.177 nM

# Target: T1, native RSV F protein from the RSV A2 …
# Experiment: cell-based or functional assay
row,Binder,"ED50, plaque reduction, RSV A2"
1,B3,0.089 nM
2,B4,0.8 nM
3,B5,0.553 nM
4,B6,0.363 nM
5,B7,0.36 nM

# Target: F protein of RSV B-wash (strain 18537) (respiratory syncytial virus B, strain …, UniProt P13843 26-574)
# Experiment: cell-based or functional assay
row,Binder,"ED50, plaque reduction, RSV B/wash"
1,B3,0.115 nM
2,B4,8 nM
3,B5,5.3 nM
4,B8,4.5 nM
5,B9,0.282 nM
6,B6,0.86 nM
7,B10,> 67 nM
8,B7,2.9 nM

# Target: F protein of RSV B-1 (respiratory syncytial virus B-1, UniProt O36634 26-574)
# Experiment: cell-based or functional assay
row,Binder,"ED50, plaque reduction, RSV B-1"
1,B3,0.055 nM
2,B4,1.7 nM
3,B5,1.4 nM
4,B8,10.7 nM
5,B9,0.295 nM
6,B6,0.329 nM
7,B10,> 67 nM
8,B7,0.833 nM

# Target: T2, recombinant RSV F protein, strain A2, extracellular domain (Respiratory Syncytial Virus strain A2, UniProt P03420 26-524)
# T2 construct: also called RSV F1 lysate (recombinant); RSV F lysate
# Experiment: ELISA, purified Fab, estimated EC50
row,Binder,EC50
1,B11,0.545 nM
2,B12,0.136 nM
3,B13,0.135 nM

# Target: T1, native RSV F protein from the RSV A2 …
# Experiment: ELISA, IgG titrated, estimated EC50
row,Binder,EC50
1,B4,0.0145 nM
2,B5,0.035 nM
3,B6,0.059 nM
4,B7,0.027 nM

# Target: T2, recombinant RSV F protein, strain A2, …
# Experiment: ELISA, IgG titrated, estimated EC50
row,Binder,EC50
1,B8,0.251 nM
2,B9,0.073 nM
3,B10,0.063 nM

# Target: T3, RSV F A2 mutant V278M (human RSV, A2 strain, UniProt P03420 26-574)
# T3 construct: whole, on cells
# Experiment: mutant F in HEK 293 cells
row,Binder,ratio of binding 58C5/30D8
1,B3,3.1

# Target: F protein of the parental RSV A2 strain (Example 11) (Respiratory Syncytial Virus strain A2, UniProt P03420 26-574)
# Experiment: cell-based or functional assay
row,Binder,"ED50, plaque reduction, RSV A2 parental"
1,B12,0.436 nM
2,B13,0.256 nM
3,B3,0.096 nM

# Target: F protein of the parental RSV A2 strain (Example 11) (Respiratory Syncytial Virus strain A2, UniProt P03420 26-574)
# Experiment: cell-based or functional assay
# Remark: another data set of the same source
row,Binder,"ED50, plaque reduction, RSV A2 parental"
1,B7,0.519 nM

# Target: T1, native RSV F protein from the RSV A2 …
# Experiment: cell-based or functional assay
# Remark: another data set of the same source
Binder,"ED50, plaque reduction, RSV A2","ED50, plaque reduction, RSV A2 (mass concentration)"
B1,0.58 nM,0.029 mg/L
B2,0.8 nM,0.04 mg/L
B14,0.8 nM,
B11,0.93 nM,
B12,0.352 nM,
B13,0.26 nM,
B15,0.107 nM,

# Target: T2, recombinant RSV F protein, strain A2, …
# Experiment: comparison of ELISA EC50
row,Binder,fold less affinity than the IgG form of 30D8
1,B9,~10 fold
2,B10,~10 fold
